Here are results for three molecules from patent US20170360949A1 (TIANJIN INSTITUTE OF INDUSTRIAL BIOTECHNOLOGY CHINESE …, published 2017).

The target in test [1] is T1, ZSST (human).
T1 construct: Two ZSST chains stand in the ZSST/TeN complex; End residue 237 from claim 18; also called SST inserted into a loop of the Z1Z2 molecule
T1 chain: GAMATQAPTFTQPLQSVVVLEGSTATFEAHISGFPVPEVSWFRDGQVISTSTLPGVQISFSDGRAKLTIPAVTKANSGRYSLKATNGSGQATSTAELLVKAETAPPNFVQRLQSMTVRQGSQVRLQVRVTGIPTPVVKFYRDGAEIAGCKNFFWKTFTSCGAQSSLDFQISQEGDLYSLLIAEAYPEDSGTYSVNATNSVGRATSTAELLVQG
Description: SDS-PAGE and Native-PAGE of the purified complex.

The target of test [2] is T2, GLZ (human).
T2 construct: Two GLZ chains stand in the GLZ/TeN complex; End residue 260 from claim 16; also called GLP-1(8G) attached to the N terminus of Z1Z2
T2 chain: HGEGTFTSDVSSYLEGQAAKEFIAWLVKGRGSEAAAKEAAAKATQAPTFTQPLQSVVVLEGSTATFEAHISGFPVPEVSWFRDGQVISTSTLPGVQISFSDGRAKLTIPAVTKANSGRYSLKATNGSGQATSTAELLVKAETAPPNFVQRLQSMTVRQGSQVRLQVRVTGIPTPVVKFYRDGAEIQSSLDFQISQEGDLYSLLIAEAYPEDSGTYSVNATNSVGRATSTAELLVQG
Description: SDS-PAGE and Native-PAGE of the purified complex.

Test [3] deals with T3, Z1Z2 (two Ig domains at the N terminus of the titin molecule) (human).
T3 construct: also called polypeptide A
T3 chain: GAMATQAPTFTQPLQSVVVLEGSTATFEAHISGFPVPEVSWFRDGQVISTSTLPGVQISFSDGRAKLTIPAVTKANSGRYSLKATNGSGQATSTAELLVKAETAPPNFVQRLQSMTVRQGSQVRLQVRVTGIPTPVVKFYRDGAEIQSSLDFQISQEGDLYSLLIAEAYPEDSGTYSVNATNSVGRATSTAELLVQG
Description: complex formation by mixing in urea and dialysis, then co-purification.

Test [4] has as its target T3, Z1Z2 (two Ig domains at the N terminus …). The test is described as follows: SDS-PAGE and Native-PAGE of the purified complex.

B1: TeN (N terminus of Telethonin, Cys mutated to Ser) (other)
chain: GAMATSELSSEVSEENSERREAFWAEWKDLTLSTRPEEGSSLHEEDTQRHETYHQQGQSQVLVQRSPWLMMRMGILGRGLQEYQLPYQRVLP
notes: also called polypeptide B
For the molecule B1, the binding result in test [1] and in test [2] was “binds” in each case.

B2: GLTe (other)
chain: HAEGTFTSDVSSYLEGQAAKEFIAWLVKGRGGGGGSGGGGSGGGGSAMATSELSSEVSEENSERREAFWAEWKDLTLSTRPEEGSSLHEEDTQRHETYHQQGQSQVLVQRSPWLMMRMGILGRGLQEYQLPYQRVLP
notes: TEV site printed as between positions 25 and 26, in conflict with GLP-1 at 25-55; claim 15 gives 25-161; also called GLP-1 (7-37) attached via (GGGGS)3 to the N terminus of TeN
Take B2: the binding result in test [3] was “binds”.

B3: SSTe (other)
chain: GAMATSELSSEVSEENSEAGCKNFFWKTFTSCGGRREAFWAEWKDLTLSTRPEEGSSLHEEDTQRHETYHQQGQSQVLVQRSPWLMMRMGILGRGLQEYQLPYQRVLP
notes: claim 17 gives 25-132; also called SST inserted into the Loop (LT1) of a TeN mutant
Regarding B3, the binding result in test [4] is given as “binds”.
